The assay addresses T1, recombinant PSSP17 (117 amino acid fragment of P. falciparum PSSP17 with a HIS tag, expressed in E. coli) (Plasmodium falciparum).
T1 construct: Antigen used to raise 10E2B7 and 27C9B5; spiked into naive human saliva in the lateral flow assays; also called recombinant PfPSSP17; recombinant subunit PSSP17; not shown: HIS tag from the expression vector
T1 chain: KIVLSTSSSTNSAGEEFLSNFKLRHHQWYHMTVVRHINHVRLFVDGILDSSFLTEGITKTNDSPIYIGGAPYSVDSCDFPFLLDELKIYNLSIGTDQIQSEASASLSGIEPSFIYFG
The assay is described as follows: sandwich lateral flow immunoassay (gRAD strip, streptavidin test line); lower limit of detection of recombinant PSSP17 printed as 1-5 ng/mL.

B1: anti-PSSP17 mAb 10E2.B7 IgG (antibody, V domains shown)
VH: EVQLVESGGDLVKPGGSLKLSCAASGFTFSSYGMSWVRQTPDKRLEWVATISSGGSYIYYPDSMKGRFTMSRDNAKNTLYLQMSSLKSEDTAMYYCAREERDWLAYWGQGTLVTVSA
VL: DVVMTQSPLSLPVSLGDQASISCRSSQSLIHNNGDIYVHWYLQKPGQSPKLLIYKVSNRFSGVPDRFSGSGSGTDFTFKISRVEAEDLGVYFCSQSSHVPPTFGGGTKLEIK
notes: Used biotinylated (20:1 biotin:antibody) as the capture antibody of the SMAART-PSSP17 lateral flow assay; also called biotinylated anti-PSSP17 10E2.B7; Bio-Ab
With B1, the binding result is listed as “binds”.

B2: anti-PF3D7_1218800 mAb 27C9.B5 IgG (antibody, V domains shown)
VH: QVQVRQSGAEVVRPGTSVRVSCKTSGYAFTDYLIEWVKQRPGQGLEWIGVINPVRGTTNYSEKFKGKATLTADKSSGTAYMQFYSLTSDDSAVYFCARSRGSDGFPYWGQGTLVTVSA
VL: DVLMTQTPLSLPVSLGDQASISCRSSQSIVHSNGYTYLEWYLQKPGQSPKLLIYKLSNRFSGVPDRFSGSGSGTDFTLKISRVEAEDLGVYYCFQGSHIPYTFGGGTKLEIK
notes: Used covalently coupled to Europium(III)-chelate carboxylate polystyrene microparticles as the detection antibody of the SMAART-PSSP17 lateral flow assay; also called EuChelate nanoparticle-conjugated anti-PSSP17 27C9.B5 mAb; MP-27C9.B5 conjugate
As to B2, the binding result is listed as “binds”.
